Assay results from patent publication US20110081661A1, “Modified photoproteins with increased affinity for calcium and enhanced bioluminescence and uses thereof” (Millipore Corporation, priority 2009, published 2011).
Read-outs that look alike come from different tables or passages of the source.

B1: Cyto-aequorin: Wild-type Aequorin (wt-Aequorin) amino acid sequence, SEQ ID NO:2; cytosolic (protein, listed as Aequorea victoria)
chain: MTSKQYSVKLTSDFDNPRWIGRHKHMFNFLDVNHNGKISLDEMVYKASDIVINNLGATPEQAKRHKDAVEAFFGGAGMKYGVETDWPAYIEGWKKLATDELEKYAKNEPTLIRIWGDALFDIVDKDQNGAITLDEWKAYTKAAGIIQSSEDCEETFRVCDIDESGQLDVDEMTRQHLGFWYTMDPACEKLYGGAVP

Key:
EP1 Receptor [1] = target: T1, EP1 Receptor (Homo sapiens, UniProt P34995); assay: Fluorescent calcium assay, stable cell line, EP1 Receptor; type: cell-based; details: read-out: EP1 Receptor EC50 for PGE2; Fluorescent Ca^2+ assay, cell line stably expressing the receptor
T1 construct: host or cells: HEK293T
T1 sequence (P34995 1-402): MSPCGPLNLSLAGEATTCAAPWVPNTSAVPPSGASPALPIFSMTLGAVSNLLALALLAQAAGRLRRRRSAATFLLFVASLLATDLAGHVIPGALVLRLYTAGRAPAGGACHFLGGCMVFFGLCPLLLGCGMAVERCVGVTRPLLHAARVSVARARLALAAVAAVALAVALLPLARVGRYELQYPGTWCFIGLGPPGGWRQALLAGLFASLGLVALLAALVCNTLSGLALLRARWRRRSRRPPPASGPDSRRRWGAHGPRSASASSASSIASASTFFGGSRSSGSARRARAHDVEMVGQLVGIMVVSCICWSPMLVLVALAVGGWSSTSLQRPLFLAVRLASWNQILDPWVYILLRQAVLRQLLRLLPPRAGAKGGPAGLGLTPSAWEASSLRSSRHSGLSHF

EP1 Receptor [2] = target: T1, EP1 Receptor; type: cell-based; details: read-out: EP1 Receptor EC50 for PGE2
Experimental: The cells were subsequently thawed and either directly placed into FreeStyle media (INVITROGEN) containing 5 μM coelenterazine (Thaw/Assay), or plated in a flask overnight in growth media consisting of DMEM/F12 containing 10% fetal bovine serum, non-essential amino acids, and penicillin/streptomycin prior to loading with coelenterazine (Thaw/ON Recovery). After loading with coelenterazine for 3-4 h, the cells were centrifuged and resuspended in HBSS with calcium and magnesium.
Thaw/Assay indicates dose response of cells that were thawed and directly loaded with coelenterazine prior to assay, and Thaw/ON Recovery indicates dose response of cells allowed to recover in growth media overnight prior to loading and assay. […] The EC50 values for activation of each receptor by its ligand for each cell treatment method were determined as described above for FIG. 5 for cytosolic clytin K168D photoprotein transfected into HEK293T cells with cotransfected GIP Receptor and G protein.

GIP Receptor = target: T2, GIP Receptor (Homo sapiens, UniProt P48546); assay: GIP receptor-mediated bioluminescence in HEK293T cells with chimeric promiscuous G protein (FIG. 5, Table II); type: cell-based
T2 construct: host or cells: HEK293T
T2 sequence (P48546 22-466): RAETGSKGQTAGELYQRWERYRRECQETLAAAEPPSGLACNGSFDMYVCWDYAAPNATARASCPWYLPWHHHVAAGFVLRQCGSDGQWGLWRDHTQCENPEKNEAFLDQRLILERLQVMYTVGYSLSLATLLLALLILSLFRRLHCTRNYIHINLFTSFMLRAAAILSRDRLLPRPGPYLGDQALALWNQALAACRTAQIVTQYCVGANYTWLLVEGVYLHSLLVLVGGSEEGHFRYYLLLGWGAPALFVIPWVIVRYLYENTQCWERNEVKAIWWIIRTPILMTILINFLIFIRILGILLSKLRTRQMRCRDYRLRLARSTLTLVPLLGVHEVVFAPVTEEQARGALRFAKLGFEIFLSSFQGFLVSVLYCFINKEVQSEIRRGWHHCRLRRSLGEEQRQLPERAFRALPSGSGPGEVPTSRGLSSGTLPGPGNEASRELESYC

H1 histamine receptor = target: T3, H1 histamine receptor (Homo sapiens, UniProt P35367); assay: GPCR-mediated versus total bioluminescence in U-2OS cells (FIG. 4); type: cell-based; details: 10 μM histamine vs Triton X-100 with 1 mM calcium
T3 construct: expressed in transfected cells; host or cells: U-2OS
Experimental: In another experiment, the ability of the various photoproteins to detect calcium flux in live cells was assessed by adding varying concentrations of histamine to cells in order to activate the H1 histamine receptor followed by measurement of bioluminescence of the various photoproteins. U-2OS cells were transfected with a cDNA encoding H1 histamine receptor along with a cDNA encoding either a wild-type photoprotein or a modified photoprotein according to the invention, as described above in Example 2, except that Lipofectamine-2000 (INVITROGEN) was used as the transfection reagent. On the second day, the cells were trypsinized, counted, and plated in a white tissue-culture treated 96-well plate (COSTAR) at a density of about 50,000 cells/well in growth media consisting of DMEM containing 10% fetal bovine serum, non-essential amino acids, HEPES and penicillin/streptomycin. On the third day, the medium was removed and cells were washed once with 200 μl/well of HBSS/HEPES (containing Ca^2+). Cells were subsequently incubated with 5 μM coelenterazine in HBSS/HEPES (containing Ca^2+) in a volume of 200 μl/well, for 3-4 hours at room temperature in the dark. After incubation, the coelenterazine solution was removed and cells were washed and replaced with HBSS/HEPES buffer containing both Ca^2+ and Mg^2+. 50 μl/well of histamine at varying concentrations in HBSS/HEPES containing both Ca^2+ and Mg^2+ was added to the cells and total bioluminescence was measured at 20 seconds using a Victor2 luminometer.
In an exemplary experiment, U-2OS cells were transfected, plated and loaded with coelenterazine as described in Example 3. Luminescence induced by buffer alone or by 10 μM histamine was measured also as described in Example 3. Additionally, luminescence induced by addition of Triton X-100 in the presence of 1 mM calcium was also determined in order to assess the total amount of active photoprotein detectable using saturating calcium concentrations in cells.

[3] = Calcium EC50 of mitochondrially targeted photoproteins in HEK293T cells without cotransfected GPCR or G protein (Table II); type: cell-based; details: no cotransfected GPCR or G protein
[4] = background statement; cited from earlier work

T3 sequence (P35367 whole entry): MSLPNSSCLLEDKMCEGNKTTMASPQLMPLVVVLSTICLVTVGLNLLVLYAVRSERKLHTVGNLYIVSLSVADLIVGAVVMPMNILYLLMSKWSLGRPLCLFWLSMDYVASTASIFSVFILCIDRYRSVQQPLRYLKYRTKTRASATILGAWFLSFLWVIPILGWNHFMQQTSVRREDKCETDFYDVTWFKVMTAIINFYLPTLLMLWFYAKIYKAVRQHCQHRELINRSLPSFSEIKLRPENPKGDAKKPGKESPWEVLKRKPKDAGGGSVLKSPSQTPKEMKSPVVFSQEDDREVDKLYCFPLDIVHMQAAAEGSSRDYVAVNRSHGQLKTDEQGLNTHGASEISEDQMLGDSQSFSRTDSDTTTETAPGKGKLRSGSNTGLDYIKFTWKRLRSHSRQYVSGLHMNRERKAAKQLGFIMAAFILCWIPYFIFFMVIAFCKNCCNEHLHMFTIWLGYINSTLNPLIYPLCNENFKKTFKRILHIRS

Row | Molecule | EC50 (EP1 Receptor [1]) | EC50 (EP1 Receptor [2]; Luminescent Assay, Thaw/Assay) | EC50 (EP1 Receptor [2]; Luminescent assay, Thaw/ON Recovery) | Max signal with GIP (RLU × 10^−5) (GIP Receptor; HEK293T cells, GIP Receptor + promiscuous G protein) | EC50 (GIP Receptor; HEK293T cells, GIP Receptor + promiscuous G protein, luminescence vs GIP concentration) | % GPCR/total (GIP Receptor; signal induced by maximal GIP (1 μM) as percentage of signal induced by Triton X-100 with 1 mM Ca^2+) | Signal: background with GIP (GIP Receptor; signal induced by maximal GIP (1 μM) divided by signal induced by buffer alone) | GPCR-mediated signal as % of the total signal (H1 histamine receptor) | EC50 [3] | affinity for calcium [4]
1 | CCCCC[C@H](O)/C=C/[C@H]1[C@H](O)CC(=O)[C@@H]1C/C=C\CCCC(=O)O [PGE2, prostaglandin E2] | 3 nM | 6 nM | 10 nM | – | – | – | – | – | – | –
2 | B1 | – | – | – | 1.21 RLU × 10^−5 | 6.67 nM | 13.0% | 29.4 | about 30% | 235 nM | around 7 μM
